Results as given in EP2182008A2.

B1: VCAM-1/IgG1 fusion protein (seven extracellular immunoglobulin-like domains) (Fc fusion, UniProt P19320 25-698, looked up, not shown: a dimerising Fc or GST)
chain: FKIETTPESRYLAQIGDSVSLTCSTTGCESPFFSWRTQIDSPLNGKVTNEGTTSTLTMNPVSFGNEHSYLCTATCESRKLEKGIQVEIYSFPKDPEIHLSGPLEAGKPITVKCSVADVYPFDRLEIDLLKGDHLMKSQEFLEDADRKSLETKSLEVTFTPVIEDIGKVLVCRAKLHIDEMDSVPTVRQAVKELQVYISPKNTVISVNPSTKLQEGGSVTMTCSSEGLPAPEIFWSKKLDNGNLQHLSGNATLTLIAMRMEDSGIYVCEGVNLIGKNRKEVELIVQEKPFTVEISPGPRIAAQIGDSVMLTCSVMGCESPSFSWRTQIDSPLSGKVRSEGTNSTLTLSPVSFENEHSYLCTVTCGHKKLEKGIQVELYSFPRDPEIEMSGGLVNGSSVTVSCKVPSVYPLDRLEIELLKGETILENIEFLEDTDMKSLENKSLEMTFIPTIEDTGKALVCQAKLHIDDMEFEPKQRQSTQTLYVNVAPRDTTVLVSPSSILEEGSSVNMTCLSQGFPAPKILWSRQLPNGELQPLSENATLTLISTKMEDSGVYLCEGINQAGRSRKEVELIIQVTPKDIKLTAFPSESVKEGDTVIISCTCGNVPETWIILKKKAETGDTVLKSIDGAYTIRKAQLKDAGVYECESKNKVGSQLRSLTLDVQGRENNKDYFSPE
B2: ICAM-2/Ig (Fc fusion, part only; not given: Ig Fc portion, UniProt P13598 25-223, looked up, part only)
chain, part: KVFEVHVRPKKLAVEPKGSLEVNCSTTCNQPEVGGLETSLDKILLDEQAQWKHYLVSNISHDTVLQCHFTCSGKQESMNSNVSVYQPPRQVILTLQPTLVAVGKSFTIECRVPTVEPLDSLTLFLFRGNETLHYETFGKAAPAPQEATATFNSTADREDGHRNFSCLAVLDLMSRGGNIFHKHSAPKMLEIYEPVSDSQ

Key:
[1] = molecular target: soluble human αd/CD18 leucine zipper heterodimer (human) (UniProt P05107); assay: ELISA, CAM/Ig on αd/CD18LZ captured with 212D
[2] = molecular target: LFA-1 leucine zipper fusion protein (UniProt P20701); assay: ELISA, CAM/Ig on captured integrin

| Binder | fold increase in signal above background [1] | fold above background [2] |
| --- | --- | --- |
| B1 | 5 fold | – |
| B2 | – | 10 fold |
